# Measured values from IntAct's records for PubMed 22081014.
# B1: SH2 domain-containing protein 3C (Homo sapiens), Q8N5H7-2 (parent)
# chain: MTAVGRRCPALGSRGAAGEPEAGSDYVKFSKEKYILDSSPEKLHKELEEELKLSSTDLRSHAWYHGRIPREVSETLVQRNGDFLIRDSLTSLGDYVLTCRWRNQALHFKINKVVVKAGESYTHIQYLFEQESFDHVPALVRYHVGSRKAVSEQSGAIIYCPVNRTFPLRYLEASYGLGQGSSKPASPVSPSGPKGSHMKRRSVTMTDGLTADKVTRSDGCPTSTSLPRPRDSIRSCALSMDQIPDLHSPMSPISESPSSPAYSTVTRVHAAPAAPSATALPASPVARRSSEPQLCPGSAPKTHGESDKGPHTSPSHTLGKASPSPSLSSYSDPDSGHYCQLQPPVRGSREWAATETSSQQARSYGERLKELSENGAPEGDWGKTFTVPIVEVTSSFNPATFQSLLIPRDNRPLEVGLLRKVKELLAEVDARTLARHVTKVDCLVARILGVTKEMQTLMGVRWGMELLTLPHGRQLRLDLLERFHTMSIMLAVDILGCTGSAEERAALLHKTIQLAAELRGTMGNMFSFAAVMGALDMAQISRLEQTWVTLRQRHTEGAILYEKKLKPFLKSLNEGKEGPPLSNTTFPHVLPLITLLECDSAPPEGPEPWGSTEHGVEVVLAHLEAARTVAHHGGLYHTNAEVKLQGFQARPELLEVFSTEFQMRLLWGSQGASSSQARRYEKFDKVLTALSHKLEPAVRSSEL
# partner: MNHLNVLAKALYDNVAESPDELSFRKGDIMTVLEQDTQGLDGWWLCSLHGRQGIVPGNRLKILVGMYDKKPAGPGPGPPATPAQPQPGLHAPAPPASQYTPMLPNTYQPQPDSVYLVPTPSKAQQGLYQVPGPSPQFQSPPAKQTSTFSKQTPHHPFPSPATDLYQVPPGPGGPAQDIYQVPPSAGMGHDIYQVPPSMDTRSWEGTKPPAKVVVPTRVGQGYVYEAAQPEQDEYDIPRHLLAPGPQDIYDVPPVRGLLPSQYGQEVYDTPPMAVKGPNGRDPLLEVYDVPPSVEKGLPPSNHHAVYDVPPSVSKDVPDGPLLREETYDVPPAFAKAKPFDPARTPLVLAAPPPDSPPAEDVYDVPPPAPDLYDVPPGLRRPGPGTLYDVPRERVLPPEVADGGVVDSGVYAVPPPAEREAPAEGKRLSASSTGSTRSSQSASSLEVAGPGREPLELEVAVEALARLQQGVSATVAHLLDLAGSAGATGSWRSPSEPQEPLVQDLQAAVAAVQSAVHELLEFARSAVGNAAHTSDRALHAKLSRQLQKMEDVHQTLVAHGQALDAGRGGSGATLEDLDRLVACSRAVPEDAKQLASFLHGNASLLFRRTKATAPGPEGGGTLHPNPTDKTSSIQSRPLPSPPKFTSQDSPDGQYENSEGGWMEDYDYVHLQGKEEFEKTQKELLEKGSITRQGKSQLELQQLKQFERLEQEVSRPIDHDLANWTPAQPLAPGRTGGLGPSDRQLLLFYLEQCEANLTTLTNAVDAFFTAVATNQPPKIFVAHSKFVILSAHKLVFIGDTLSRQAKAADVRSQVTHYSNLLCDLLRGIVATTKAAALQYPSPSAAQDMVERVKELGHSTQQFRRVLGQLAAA
# B2: Breast cancer anti-estrogen resistance protein 3 (Homo sapiens), O75815-1 (parent)
# chain: MAAGKFASLPRNMPVNHQFPLASSMDLLSSRSPLAEHRPDAYQDVSIHGTLPRKKKGPPPIRSCDDFSHMGTLPHSKSPRQNSPVTQDGIQESPWQDRHGETFTFRDPHLLDPTVEYVKFSKERHIMDRTPEKLKKELEEELLLSSEDLRSHAWYHGRIPRQVSENLVQRDGDFLVRDSLSSPGNFVLTCQWKNLAQHFKINRTVLRLSEAYSRVQYQFEMESFDSIPGLVRCYVGNRRPISQQSGAIIFQPINRTVPLRCLEEHYGTSPGQAREGSLTKGRPDVAKRLSLTMGGVQAREQNLPRGNLLRNKEKSGSQPACLDHMQDRRALSLKAHQSESYLPIGCKLPPQSSGVDTSPCPNSPVFRTGSEPALSPAVVRRVSSDARAGEALRGSDSQLCPKPPPKPCKVPFLKVPSSPSAWLNSEANYCELNPAFATGCGRGAKLPSCAQGSHTELLTAKQNEAPGPRNSGVNYLILDDDDRERPWEPAAAQMEKGQWDKGEFVTPLLETVSSFRPNEFESKFLPPENKPLETAMLKRAKELFTNNDPKVIAQHVLSMDCRVARILGVSEEMRRNMGVSSGLELITLPHGHQLRLDIIERHNTMAIGIAVDILGCTGTLEDRAATLSKIIQVAVELKDSMGDLYSFSALMKALEMPQITRLEKTWTALRHQYTQTAILYEKQLKPFSKLLHEGRESTCVPPNNVSVPLLMPLVTLMERQAVTFEGTDMWEKNDQSCEIMLNHLATARFMAEAADSYRMNAERILAGFQPDEEMNEICKTEFQMRLLWGSKGAQVNQTERYEKFNQILTALSRKLEPPPVKQAEL
# partner: B1 partner
# B3: Breast cancer anti-estrogen resistance protein 1 (Homo sapiens), P56945 (parent)
# chain: B1 partner
# partner: B1 chain
# Variants of: B1
# Details: with bcar1_human BCAR1, P56945
row,Variant,effect of a mutation on the interaction
1,L623E,disrupting interaction
2,L469R,decreasing interaction
3,R627E,decreasing interaction

# Variants of: B1
# Details: with bcar1_human BCAR1, P56945
# Remark: another data set of the same source
row,Variant,effect of a mutation on the interaction
1,L469R,disrupting interaction

# Variants of: B2
# Details: with bcar1_human BCAR1, P56945
row,Variant,effect of a mutation on the interaction
1,L744E,disrupting interaction
2,R748E,disrupting interaction

# Variants of: B3
# Details: with SH2D3C
row,Variant,effect of a mutation on the interaction
1,F794R,disrupting interaction
2,L787E,disrupting interaction

# Variants of: B3
# Details: with SH2D3C
# Remark: another data set of the same source
row,Variant,effect of a mutation on the interaction
1,F794R,decreasing interaction
2,D797R,decreasing interaction
3,L787E;F794R,disrupting interaction
4,L787E,decreasing interaction
5,F794E;D797R,disrupting interaction
